Results taken from paper PMC3124497.

How the values were obtained:
[1] = biological target: HIV-1 ADA Env trimer (gp120/gp41) on LAI-chimeric molecular clone virions (HIV-1 isolate ADA | HIV-1 isolate LAI); test: native gel or EMSA; Blue Native PAGE: virions concentrated 100-fold, 1% DDM for 20 min on ice, 4-16% NativePAGE Bis-Tris gel at RT, Western blot with mAb cocktails to gp120 or to gp41; virions untreated or first incubated 1 h at 37-57°C or up to 96 h at 37°C
[2] = biological target: HIV-1 JR2 Env trimer (gp120/gp41) on LAI-chimeric molecular clone virions (HIV-1 isolate JR-FL | HIV-1 isolate LAI); test: as above
[3] = biological target: HIV-1 JR-FL SOS Env trimer (A501C, T605C) on LAI-chimeric molecular clone virions (HIV-1 isolate JR-FL | HIV-1 isolate LAI); test: as above
[4] = biological target: HIV-1 JR-CSF Env trimer (gp120/gp41) on LAI-chimeric molecular clone virions (HIV-1 isolate JR-CSF | HIV-1 isolate LAI) (UniProt P20871); test: as above
[5] = biological target: HIV-1 JR-FL Env trimer (gp120/gp41) on LAI-chimeric molecular clone virions (HIV-1 isolate JR-FL | HIV-1 isolate LAI); test: as above
[6] = biological target: HIV-1 ADA Env trimer (gp120/gp41) on LAI-chimeric molecular clone virions (HIV-1 isolate ADA | HIV-1 isolate LAI)
[7] = biological target: HIV-1 JR-CSF Env trimer (gp120/gp41) on LAI-chimeric molecular clone virions (HIV-1 isolate JR-CSF | HIV-1 isolate LAI) (UniProt P20871)
[8] = biological target: HIV-1 JR-FL Env trimer (gp120/gp41) on LAI-chimeric molecular clone virions (HIV-1 isolate JR-FL | HIV-1 isolate LAI)

**Q.** With “HIV-1 ADA Env trimer (gp120/gp41) on LAI-chimeric molecular clone virions (complex)” as the substance, how does the stoichiometry N [1] read?
**A.** The stoichiometry N was 3.

**Q.** “HIV-1 JR2 Env trimer (gp120/gp41) on LAI-chimeric molecular clone virions (complex)” was tested. Which stoichiometry N [2] did it give?
**A.** The stoichiometry N was 3.

**Q.** Which stoichiometry N [3] does the source give for “HIV-1 JR-FL SOS Env trimer (A501C, T605C) on LAI-chimeric molecular clone virions (complex)” here?
**A.** The stoichiometry N was 3.

**Q.** With “HIV-1 JR-CSF Env trimer (gp120/gp41) on LAI-chimeric molecular clone virions (from UniProt P20871 32-503) (complex)” as the substance, how does the stoichiometry N [4] read?
**A.** The stoichiometry N was 3.

**Q.** Which stoichiometry N [5] does the source give for “HIV-1 JR-FL Env trimer (gp120/gp41) on LAI-chimeric molecular clone virions (complex)” here?
**A.** The stoichiometry N was 3.

**Q.** With “Four-domain soluble human CD4 (receptor)” as the substance, how does the sCD4 IC50: concentration of 4-domain soluble CD4 required to decrease HIV-1 infectivity by 50% (TZM-bl cells) [6] read?
**A.** The sCD4 IC50: concentration of 4-domain soluble CD4 required to decrease HIV-1 infectivity by 50% (TZM-bl cells) was 0.17 µg/mL.

**Q.** What about the sCD4 IC50: concentration of 4-domain soluble CD4 required to decrease HIV-1 infectivity by 50% (TZM-bl cells) [7] of the same substance?
**A.** Its sCD4 IC50: concentration of 4-domain soluble CD4 required to decrease HIV-1 infectivity by 50% (TZM-bl cells) is 1.1 µg/mL.

**Q.** What about the sCD4 IC50: concentration of 4-domain soluble CD4 required to decrease HIV-1 infectivity by 50% (TZM-bl cells) [8] of the same substance?
**A.** Its sCD4 IC50: concentration of 4-domain soluble CD4 required to decrease HIV-1 infectivity by 50% (TZM-bl cells) is 1.2 µg/mL.
